B1: HA-tagged RasGRF1 fragment, amino acids 714-841 (other)
chain: RASRKFSSPPPLAIGTSSPVRRRKLSLNIPIITGGKALELASLGCPSDGYTNIHSPISPFGKTTLDTSKLCVASSLTRTPEEIDMTTLEESSGFRKPTSDILKEESDDDQSDVDDTEVSPPTPKSFRN
notes: In vitro translated, 35S-labelled; not shown: HA tag encoded by the 5' primer
B2: HA-tagged RasGRF1 fragment, amino acids 835-913 (other)
chain: TPKSFRNRITQEFPLFNYNSGIMMTCRDLMDSNRSPLSATSAFAIATAGANESPANKEIYRRMSLANTGYSSDQRNIDK
notes: as for B1
B3: full-length mouse RasGRF1 (other, UniProt P27671 1-1262, looked up)
chain: MQKAIRLNDGHVVTLGLLAQKDGTRKGYLSKRSADNPKWQTKWFALLQNLLFYFESDSSPRPSGLYLLEGSICKRAPSPKRGTSSKESGEKQQHYFTVNFSNDSQKTLELRTEDAKDCDEWVAAIARASYKILATEHEALMQKYLHLLQVVETEKTVAKQLRQQLEDGEVEIERLKTEVTITNLIKDNDRIQSSNKAGSADDEDSDIKKIKKVQSFLRGWLCRRKWKNIIQDYIRSPHADSMRKRNQVVFSMLEAEAEYVQQLHILVNNFLRPLRMAASSKKPPITHDDVSSIFLNSETIMFLHQIFYQGLKARISSWPTLVLADLFDILLPMLNIYQEFVRNHQYSLQILAHCKQNRDFDKLLKQYEAKPDCEERTLETFLTYPMFQIPRYILTLHELLAHTPHEHVERNSLDYAKSKLEELSRIMHDEVSETENIRKNLAIERMITEGCEILLDTSQTFVRQGSLMQMSLSEKSKSSRGRLGSLSTKKEGERQCFLFSKHLIICTRGSGGKLHLTKNGVISLIDCTLLDEPENLDDEAKGAGPEIEHLEFKIGVEPKDSLPFTVILVASTRQEKAAWTSDIIQCVDNIRCNGLMMNAFEENSKVTVPQMIKSDASLYCDDVDIRFSKTMNSCKVLQIRYASVERLLERLTDLRFLSIDFLNTFLHSYRVFTNAMVVLDKLINIYRKPMSAIPARSLELLFSSSHNAKLLYGDAPKSPRASRKFSSPPPLAIGTSSPSRRRKLSLNIPIITGGKALELASLGCSSDSYANIHSPISPFGKTTLDTGKLCMASSLPKTPEEIDVPATIPEKPGELSASRKHSSDVLKEESEDDQNHSDEDNTEVSPVKSPPTPKSFLNRTITEFPFFNYNNGILMTTCRDLVDNNRSTLSATSAFAIATAGANEGPSNKEVFRRMSLANTGFSSDQRNIDKEFVIRRAATNRVLNVLRHWVTKHTQDFDTDDTLKYRVICFLEEVMHDPDLLTQERKAAANIIRTLTLEETTEQHSMLEEVILMTEGVKTEPFENHPALEIAEQLTLLDHLVFKSIPYEEFFGQGWMKAEKYERTPYIMKTTKHFNHVSNFIASEIIRNEDISARASAIEKWVAVADICRCLHNYNAVLEITSSINRSAIFRLKKTWLKVSKQTKSLLDKLQKLVSSDGRFKNLRESLRNCDPPCVPYLGMYLTDLVFIEEGTPNYTEDGLVNFSKMRMISHIIREIRQFQQTTYKIDPQPKVIQYLLDESFMLDEESLYESSLLIEPKLPT
notes: Full-length; also called in vitro translated RasGRF1; mouse RasGRF1 in pcDNA3
B4: HA-tagged RasGRF1 fragment, amino acids 1-720 (other)
chain: MQKAIRLNDGHVVSLGLLAQRDGTRKGYLSKRSSDNPKWQTKWFALLQNLLFYFESDSSSRPSGLYLLEGSICKRMPSPKRGTSSKESDKQHHYFTVNFSNDSQKSLELRTDDSKDCDEWVAAIARASYKILATEHEALMQKYLHLLQVVETEKTVAKQLRQQLEDGEVEIERLKAEIANLIKDNERIQSNQLVAPEDEDSDIKKIKKVQSFLRGWLCRRKWKNIIQDYIRSPHADSMRKRNQVVFSMLEAEAEYVQQLHILVNNFLRPLRMAASSKKPPITHDDVSSIFLNSETIMFLHQIFYQGLKARIASWPTLVLADLFDILLPMLNIYQEFVRNHQYSLQILAHCKQNRDFDKLLKQYEAKPDCEERTLETFLTYPMFQIPRYILTLHELLAHTPHEHVERNSLDYAKSKLEELSRVMHDEVSETENIRKNLAIERMITEGCEILLDTSQTFVRQGSLIQVPMSEKGKINKGRLGSLSLKKEGERQCFLFSKHLIICTRGSGSKLHLTKNGVISLIDCTLLDDPENMDDDGKGQEVDHLDFKIWVEPKDSPPFTVILVASSRQEKAAWTSDIIQCVDNIRCNGLMMNAFEENSKVTVPQMIKSDASLYCDDVDIRFSKTMNSCKVLQIRYASVERLLERLTDLRFLSIDFLNTFLHSYRVFTDAVVVLDKLISIYKKPITAIPARSLELLFSSSHNTKLLYGDAPKSPRASRKFS
notes: In vitro translated, 35S-labelled; also called N-terminal portion of RasGRF1; not shown: HA tag encoded by the 5' primer
B5: AU1-tagged NR2B fragment, amino acids 1136-1310 (other)
chain: QFRTKENSPHWEHVDLTDIYKERSDDFKRDSVSGGGPCTNRSHLKHGTGEKHGVVGGVPAPWEKNLTNVDWEDRSGGNFCRSCPSKLHNYSSTVAGQNSGRQACIRCEACKKAGNLYDISKDNSLQELDQPAAPVAVTSNASSTKYPQSPTNSKAQKKNRNKLRRQHSYDTFVDL
notes: In vitro translated, 35S-labelled; also called distal portion of the bait; not shown: AU1 tag encoded by the 5' primer

Legend:
[1] = biological target: T1, in vitro translated full-length NR2B (Rattus norvegicus (Rat), UniProt Q00960 1-1482, limits assumed); assay: co-immunoprecipitation of in vitro translated proteins with anti-HA
T1 construct: Full-length, 35S-labelled, translated in vitro
T1 sequence (Q00960 other isoform, or with tags, fused parts or gaps limits assumed): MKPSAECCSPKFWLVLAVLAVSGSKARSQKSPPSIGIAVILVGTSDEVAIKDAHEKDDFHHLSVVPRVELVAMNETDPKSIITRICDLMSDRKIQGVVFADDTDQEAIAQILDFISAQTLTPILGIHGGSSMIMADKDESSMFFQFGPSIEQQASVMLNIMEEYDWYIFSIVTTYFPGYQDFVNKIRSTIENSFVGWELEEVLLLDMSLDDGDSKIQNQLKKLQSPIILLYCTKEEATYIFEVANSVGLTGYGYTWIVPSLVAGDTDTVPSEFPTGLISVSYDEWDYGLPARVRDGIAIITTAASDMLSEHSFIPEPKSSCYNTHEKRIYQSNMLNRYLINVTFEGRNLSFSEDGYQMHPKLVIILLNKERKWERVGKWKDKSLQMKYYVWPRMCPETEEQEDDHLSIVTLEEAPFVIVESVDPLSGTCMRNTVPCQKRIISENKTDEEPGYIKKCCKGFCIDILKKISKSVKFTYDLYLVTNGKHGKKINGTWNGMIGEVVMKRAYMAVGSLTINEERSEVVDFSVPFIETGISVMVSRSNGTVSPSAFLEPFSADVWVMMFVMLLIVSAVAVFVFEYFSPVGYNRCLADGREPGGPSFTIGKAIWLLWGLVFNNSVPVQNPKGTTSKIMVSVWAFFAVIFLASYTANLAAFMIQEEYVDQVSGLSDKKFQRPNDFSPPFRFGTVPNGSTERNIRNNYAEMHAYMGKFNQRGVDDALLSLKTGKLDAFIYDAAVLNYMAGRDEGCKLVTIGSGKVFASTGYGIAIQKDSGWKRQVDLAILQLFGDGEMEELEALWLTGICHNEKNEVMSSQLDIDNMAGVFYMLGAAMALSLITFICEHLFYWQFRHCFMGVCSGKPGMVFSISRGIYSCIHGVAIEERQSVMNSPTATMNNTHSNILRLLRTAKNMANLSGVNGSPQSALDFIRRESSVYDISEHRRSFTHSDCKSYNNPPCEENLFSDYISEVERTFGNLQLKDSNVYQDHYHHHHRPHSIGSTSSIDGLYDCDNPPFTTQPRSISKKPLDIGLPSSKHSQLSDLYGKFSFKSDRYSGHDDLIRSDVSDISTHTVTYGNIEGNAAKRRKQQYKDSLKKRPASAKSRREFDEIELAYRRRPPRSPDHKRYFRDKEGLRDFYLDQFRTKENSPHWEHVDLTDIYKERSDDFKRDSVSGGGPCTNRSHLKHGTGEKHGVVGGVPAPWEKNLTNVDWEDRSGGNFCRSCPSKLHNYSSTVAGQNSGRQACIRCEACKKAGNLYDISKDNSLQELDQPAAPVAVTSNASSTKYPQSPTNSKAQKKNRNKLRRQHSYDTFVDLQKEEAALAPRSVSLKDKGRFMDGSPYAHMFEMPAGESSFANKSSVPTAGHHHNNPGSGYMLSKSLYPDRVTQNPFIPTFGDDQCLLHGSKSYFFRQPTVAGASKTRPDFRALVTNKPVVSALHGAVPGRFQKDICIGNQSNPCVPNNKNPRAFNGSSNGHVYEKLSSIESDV
Method: For in vitro binding experiments, equimolar amounts of in vitro translated ³⁵S-labeled proteins (calculated from radioactivity of the excised protein band and cysteine content in the specific fragment) were incubated with a 3-fold molar excess of translated RasGRF1 for 30 min at 30° C., diluted with RIPA buffer, and immunoprecipitated with anti-HA-agarose (Santa Cruz). In competition experiments, RasGRF1 and NR2B were immunoprecipitated for 2 hr at 4° C. from solubilized rat brain microsomes in the presence of 10 μM NusA, 10 μM NusA-RasGRF1-BD, or 5 μM NusA-NR2B-BD.

[2] = biological target: T2, GFP rat NR2A (expressed in HEK293T cells) (rat, UniProt Q00959 23-1464); assay: co-immunoprecipitation from co-transfected HEK293T cells
T2 construct: whole, on cells; not shown: GFP
T2 sequence (Q00959 23-1464): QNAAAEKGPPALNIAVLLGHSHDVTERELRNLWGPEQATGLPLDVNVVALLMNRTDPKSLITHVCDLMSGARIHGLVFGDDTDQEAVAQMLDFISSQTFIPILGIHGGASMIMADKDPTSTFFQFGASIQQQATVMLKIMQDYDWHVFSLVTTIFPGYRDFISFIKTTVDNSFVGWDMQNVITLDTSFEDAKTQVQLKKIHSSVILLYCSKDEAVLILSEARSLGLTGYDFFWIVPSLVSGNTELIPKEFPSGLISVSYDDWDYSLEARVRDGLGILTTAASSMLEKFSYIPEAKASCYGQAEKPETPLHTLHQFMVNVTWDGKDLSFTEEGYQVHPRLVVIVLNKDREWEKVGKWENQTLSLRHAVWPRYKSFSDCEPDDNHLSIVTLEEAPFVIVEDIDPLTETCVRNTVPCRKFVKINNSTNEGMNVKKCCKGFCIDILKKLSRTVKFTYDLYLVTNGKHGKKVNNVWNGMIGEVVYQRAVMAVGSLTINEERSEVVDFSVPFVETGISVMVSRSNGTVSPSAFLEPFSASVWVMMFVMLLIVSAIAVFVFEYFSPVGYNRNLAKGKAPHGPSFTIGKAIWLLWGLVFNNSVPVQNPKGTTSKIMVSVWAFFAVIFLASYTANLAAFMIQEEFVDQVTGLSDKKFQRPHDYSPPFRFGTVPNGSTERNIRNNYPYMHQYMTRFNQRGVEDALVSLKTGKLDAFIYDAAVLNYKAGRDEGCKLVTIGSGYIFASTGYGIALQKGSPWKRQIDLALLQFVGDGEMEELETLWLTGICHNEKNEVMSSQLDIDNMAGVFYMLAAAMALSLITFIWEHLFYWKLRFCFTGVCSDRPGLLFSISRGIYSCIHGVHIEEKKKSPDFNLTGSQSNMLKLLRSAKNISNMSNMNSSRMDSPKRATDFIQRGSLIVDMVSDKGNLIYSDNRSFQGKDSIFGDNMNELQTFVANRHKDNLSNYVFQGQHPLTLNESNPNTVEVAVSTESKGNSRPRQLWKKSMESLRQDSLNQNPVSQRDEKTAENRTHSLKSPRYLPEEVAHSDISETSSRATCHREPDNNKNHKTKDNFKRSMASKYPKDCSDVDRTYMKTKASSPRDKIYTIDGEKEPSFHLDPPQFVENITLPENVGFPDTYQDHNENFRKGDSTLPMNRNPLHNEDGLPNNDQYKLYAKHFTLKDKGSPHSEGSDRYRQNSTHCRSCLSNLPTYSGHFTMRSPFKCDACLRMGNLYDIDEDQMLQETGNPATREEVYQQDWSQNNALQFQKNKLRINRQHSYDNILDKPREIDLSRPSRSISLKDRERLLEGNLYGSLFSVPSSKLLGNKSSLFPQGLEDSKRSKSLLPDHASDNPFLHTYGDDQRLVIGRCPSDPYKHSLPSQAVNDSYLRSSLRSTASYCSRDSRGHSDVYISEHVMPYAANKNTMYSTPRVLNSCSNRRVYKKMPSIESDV
Method: Transfected cells were solubilized in lysis buffer (100 mM Tris-Cl [pH 8.5], 500 mM NaCl, 1% Triton X-100) supplemented with corn plete protease inhibitor (Roche) and immunoprecipitated with NR2B (Santa Cruz, sc-9057), NR1, or NR2A (Chemicon) antibody (5 μg/ml), washed with lysis buffer, separated on SDS gel, and blotted on PVDF. Blots were probed with anti-RasGRF1 (Santa Cruz) and the appropriate NR subunit antibody. 6- to 8-week-old rat brain P2 microsomes were isolated and solubilized as described (Luo, J., et al. (1997) Mol. Pharmacol. 51, 79-86). 80 μg of solubilized protein were immunoprecipitated with NR2B, RasGRF1, or pooled rabbit IgG, and immunoprecipitated proteins were probed on Western blot with RasGRF1 and NR2B antibodies. All immunoprecipitation experiments were only taken as valid if repeated 3-5 times with similar results. Routine negative controls with antigen pre-absorption were carried out for antibodies used in immunoprecipitation experiments. Also, all immunoprecipitating antibodies were tested for the cross-reactivity with in vitro translated co-immunoprecipitated molecules.

[3] = biological target: B3; assay: co-immunoprecipitation of in vitro translated proteins with AU1 antibody

binding result [1] | also measured | Binder
no binding |  | B1
no binding |  | B2
 | binding result [2]: no binding | B3
no binding |  | B4
 | binding result [3]: no binding | B5
